Results published in patent US12534531 (MacroGenics, dated 2026).

Assays:
[1] = biological target: T1, human PD-1 expressed on the surface of cells (NSO cells expressing human PD-1; MNFAT-luc2/PD-1 Jurkat cells) (human, UniProt Q15116 21-288); experiment: FACS: inhibition of sPD-L2 binding to PD-1 on NSO cells; SM; SD 0.7736
T1 construct: also called cell surface PD-1; PDCD1 transfected NSO cells expressing PD-1

[2] = biological target: T2, human LAG-3 expressed on NSO cells (human, UniProt P18627 29-525); experiment: FACS saturation binding to NSO cells expressing LAG-3; SM; SD 0.8075
T2 sequence: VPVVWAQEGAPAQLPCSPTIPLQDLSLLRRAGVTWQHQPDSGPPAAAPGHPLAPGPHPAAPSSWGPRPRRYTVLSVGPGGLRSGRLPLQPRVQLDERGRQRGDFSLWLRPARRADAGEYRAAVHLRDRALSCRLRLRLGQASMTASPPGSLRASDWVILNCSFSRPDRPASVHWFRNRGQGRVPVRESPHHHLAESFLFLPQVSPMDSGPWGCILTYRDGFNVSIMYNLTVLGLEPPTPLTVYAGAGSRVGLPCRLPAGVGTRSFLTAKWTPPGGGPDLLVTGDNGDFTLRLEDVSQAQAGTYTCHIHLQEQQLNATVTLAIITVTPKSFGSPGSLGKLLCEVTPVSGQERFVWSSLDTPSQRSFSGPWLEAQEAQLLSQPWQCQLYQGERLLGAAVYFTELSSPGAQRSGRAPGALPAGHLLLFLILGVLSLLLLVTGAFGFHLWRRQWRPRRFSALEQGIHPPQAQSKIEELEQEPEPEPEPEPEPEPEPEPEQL

[3] = biological target: T1, human PD-1 expressed on the surface of …; experiment: FACS: inhibition of sPD-L1 binding to PD-1 on NSO cells; SM; SD 0.3307
[4] = biological target: T3, biotinylated-soluble human LAG-3-Fc fusion protein (human, UniProt P18627 23-450, biotinylated (site not stated)); experiment: FACS: inhibition of shLAG-3-Fc binding to MHC II on Daudi cells (column head prints EC50); SM; SD 2.9177
T3 construct: whole entry named; also called shLAG-3; shLAG-3-Fc; not shown: Fc
T3 sequence: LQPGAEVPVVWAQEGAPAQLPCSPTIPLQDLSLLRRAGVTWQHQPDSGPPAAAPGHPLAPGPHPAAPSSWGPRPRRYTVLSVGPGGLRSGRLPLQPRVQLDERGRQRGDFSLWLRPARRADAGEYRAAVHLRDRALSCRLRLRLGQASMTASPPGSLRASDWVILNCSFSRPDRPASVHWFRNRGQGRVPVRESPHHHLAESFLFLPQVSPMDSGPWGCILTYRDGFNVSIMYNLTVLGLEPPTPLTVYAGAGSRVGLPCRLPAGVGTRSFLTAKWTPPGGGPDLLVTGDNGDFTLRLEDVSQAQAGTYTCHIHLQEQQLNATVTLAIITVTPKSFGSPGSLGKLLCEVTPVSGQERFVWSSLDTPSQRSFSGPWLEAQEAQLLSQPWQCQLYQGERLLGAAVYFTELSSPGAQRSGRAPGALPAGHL

[5] = biological target: T1, human PD-1 expressed on the surface of …; experiment: FACS saturation binding to NSO cells expressing PD-1; SM; SD 0.5742
[6] = biological target: T1, human PD-1 expressed on the surface of …; experiment: FACS saturation binding to NSO cells expressing PD-1; SM; SD 0.4140
[7] = biological target: T1, human PD-1 expressed on the surface of …; experiment: FACS: inhibition of sPD-L2 binding to PD-1 on NSO cells; SM; SD 0.5869
[8] = biological target: T2, human LAG-3 expressed on NSO cells; experiment: FACS saturation binding to NSO cells expressing LAG-3; SM; SD 0.5326
[9] = biological target: T1, human PD-1 expressed on the surface of …; experiment: FACS: inhibition of sPD-L1 binding to PD-1 on NSO cells; SM; SD 0.1692
[10] = biological target: T3, biotinylated-soluble human LAG-3-Fc …; experiment: FACS: inhibition of shLAG-3-Fc binding to MHC II on Daudi cells (column head prints EC50); SM; SD 1.1398

T1 sequence (Q15116 21-288): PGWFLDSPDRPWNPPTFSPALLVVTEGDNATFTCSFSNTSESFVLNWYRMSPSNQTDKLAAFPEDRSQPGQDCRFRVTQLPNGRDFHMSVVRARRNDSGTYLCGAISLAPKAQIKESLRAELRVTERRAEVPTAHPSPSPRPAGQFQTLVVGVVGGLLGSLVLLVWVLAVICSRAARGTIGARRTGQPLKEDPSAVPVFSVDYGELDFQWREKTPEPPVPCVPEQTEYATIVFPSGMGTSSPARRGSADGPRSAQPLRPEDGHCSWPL

B1: DART E (bispecific antibody, human IgG4 S228P, kappa)
chain 1: DIVMTQTPLSLSVTPGQPASISCKSSQSLLHSDAKTYLNWLLQKPGQPPERLIYLVSELDSGVPDRFSGSGSGTDFTLKISRVEAEDVGVYYCWQGTHFPYTFGGGTKVEIKGGGSGGGGQVQLVQSGAEVKKPGASVKVSCKASGYSFTSYWMNWVRQAPGQGLEWIGVIHPSDSETWLDQKFKDRVTITVDKSTSTAYMELSSLRSEDTAVYYCAREHYGTSPFAYWGQGTLVTVSSLGGGSGASTKGPSVFPLAPCSRSTSESTAALGCLVKDYFPEPVTVSWNSGALTSGVHTFPAVLQSSGLYSLSSVVTVPSSSLGTKTYTCNVDHKPSNTKVDKRVESKYGPPCPPCPAPEFLGGPSVFLFPPKPKDTLYITREPEVTCVVVDVSQEDPEVQFNWYVDGVEVHNAKTKPREEQFNSTYRVVSVLTVLHQDWLNGKEYKCKVSNKGLPSSIEKTISKAKGQPREPQVYTLPPSQEEMTKNQVSLTCLVKGFYPSDIAVEWESNGQPENNYKTTPPVLDSDGSFFLYSRLTVDKSRWQEGNVFSCSVMHEALHNHYTQKSLSLSLG
chain 2: EIVLTQSPATLSLSPGERATLSCRASESVDNYGMSFMNWFQQKPGQPPKLLIHAASNQGSGVPSRFSGSGSGTDFTLTISSLEPEDFAVYFCQQSKEVPYTFGGGTKVEIKGGGSGGGGQVQLVQSGAEVKKPGASVKVSCKASGYTFTNYGMNWVRQAPGQGLEWMGWINTYTGESTYADDFEGRFVFSMDTSASTAYLQISSLKAEDTAVYYCARESLYDYYSMDYWGQGTTVTVSSLGGGSGRTVAAPSVFIFPPSDEQLKSGTASVVCLLNNFYPREAKVQWKVDNALQSGNSQESVTEQDSKDSTYSLSSTLTLSKADYEKHKVYACEVTHQGLSSPVTKSFNRGEC
B1 was tested, and the IC50 [1] was 2950 nM, the EC50 [2] was 925 nM and the IC50 [3] was 1650 nM. For the same binder, the IC50 [4] was 3270 nM and the EC50 [5] was 3220 nM.

B2: DART D (bispecific antibody, human IgG4 S228P, kappa)
chain 1: EIVLTQSPATLSLSPGERATLSCRASESVDNYGMSFMNWFQQKPGQPPKLLIHAASNQGSGVPSRFSGSGSGTDFTLTISSLEPEDFAVYFCQQSKEVPYTFGGGTKVEIKGGGSGGGGQVQLVQSGAEVKKPGASVKVSCKASGYTFTNYGMNWVRQAPGQGLEWMGWINTYTGESTYADDFEGRFVFSMDTSASTAYLQISSLKAEDTAVYYCARESLYDYYSMDYWGQGTTVTVSSLGGGSGASTKGPSVFPLAPCSRSTSESTAALGCLVKDYFPEPVTVSWNSGALTSGVHTFPAVLQSSGLYSLSSVVTVPSSSLGTKTYTCNVDHKPSNTKVDKRVESKYGPPCPPCPAPEFLGGPSVFLFPPKPKDTLYITREPEVTCVVVDVSQEDPEVQFNWYVDGVEVHNAKTKPREEQFNSTYRVVSVLTVLHQDWLNGKEYKCKVSNKGLPSSIEKTISKAKGQPREPQVYTLPPSQEEMTKNQVSLTCLVKGFYPSDIAVEWESNGQPENNYKTTPPVLDSDGSFFLYSRLTVDKSRWQEGNVFSCSVMHEALHNHYTQKSLSLSLG
chain 2: DIVMTQTPLSLSVTPGQPASISCKSSQSLLHSDAKTYLNWLLQKPGQPPERLIYLVSELDSGVPDRFSGSGSGTDFTLKISRVEAEDVGVYYCWQGTHFPYTFGGGTKVEIKGGGSGGGGQVQLVQSGAEVKKPGASVKVSCKASGYSFTSYWMNWVRQAPGQGLEWIGVIHPSDSETWLDQKFKDRVTITVDKSTSTAYMELSSLRSEDTAVYYCAREHYGTSPFAYWGQGTLVTVSSLGGGSGRTVAAPSVFIFPPSDEQLKSGTASVVCLLNNFYPREAKVQWKVDNALQSGNSQESVTEQDSKDSTYSLSSTLTLSKADYEKHKVYACEVTHQGLSSPVTKSFNRGEC
B2 was tested, and the EC50 [6] was 2230 nM, the IC50 [7] was 3130 nM and the EC50 [8] was 898 nM. For the same binder, the IC50 [9] was 1550 nM and the IC50 [10] was 1180 nM.
